Measured values from patent US20140329706A1, “AFFINITY TAGS, AND RELATED AFFINITY LIGANDS, ENGINEERED PROTEINS, MODIFIED SUPPORTS, COMPOSITIONS, METHODS AND SYSTEMS” (CALIFORNIA INSTITUTE OF TECHNOLOGY, priority 2013, published 2014).

Target: T1, PSD-95 PDZ1-PDZ2 (Mus musculus, UniProt Q62108)
T1 construct: HaloTag-PDZ1+PDZ2 fusion protein (residues 61 to 249 of Mus musculus PSD-95); HaloTag (N); made in house
Experiment: Binding of cypin to PSD-95 PDZ1-PDZ2 affinity resin
Text: An affinity column was used substituted with a HaloTag-PDZ1+PDZ2 fusion protein (residues 61 to 249 of Mus musculus PSD-95) to purify heterologously expressed human cypin. Cypin was expressed in E. coli either as the free protein or fused to an N-terminal MBP, and purified from the bacterial supernate on the PDZ1-PDZ2 Domain-Affinity Resin. Both cypin and MBP-cypin were purified to >99% homogeneity.
For the experiment, full length cypin (guanine deaminase, Homo sapiens: AA 1-454) or MBP-cypin fusion proteins were expressed in BL21(DE3) E. coli cells. Single colonies of BL21(DE3) cells harboring pJExpress414 plasmids containing cypin or MBP-cypin genes were grown overnight at 37° C. in 5 ml of lysogeny broth (LB) (Cat. No. L9110, Teknova, Hollister, Calif.) supplemented with 100 ug/ml carbenicillin. […] Bacterial cell pellets (0.4-2.5 grams) containing cypin or MBP-cypin were resuspended in 5 ml/g cell paste of BugBuster Lysis Buffer [1× BugBuster (Cat. No. 70921, EMD Millipore, Billerica Mass.), 50 mM HEPES, 150 mM NaCl, 5 mM TCEP, 0.5 mM EDTA, 10 mM MgCl2, 2 mM PMSF, Complete Protease Inhibitor supplemented with 25 U/ml Benzonase and 10 U/ml ReadyLyse]. […] Eluted protein was analyzed on 4-12% bis-tris SDS-PAGE gels and proteins were detected by Gel Code Blue staining.

T1 sequence (Q62108 61-249): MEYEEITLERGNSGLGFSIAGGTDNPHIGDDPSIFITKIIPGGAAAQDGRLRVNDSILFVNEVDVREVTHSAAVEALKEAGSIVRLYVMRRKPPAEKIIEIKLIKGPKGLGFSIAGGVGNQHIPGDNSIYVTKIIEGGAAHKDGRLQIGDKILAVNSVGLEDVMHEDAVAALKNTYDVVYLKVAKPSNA

B1: untagged cypin: full length cypin (guanine deaminase, Homo sapiens: AA 1-454) (protein)
chain: MCAAQMPPLAHIFRGTFVHSTWTCPMEVLRDHLLGVSDSGKIVFLEEASQQEKLAKEWCFKPCEIRELSHHEFFMPGLVDTHIHASQYSFAGSSIDLPLLEWLTKYTFPAEHRFQNIDFAEEVYTRVVRRTLKNGTTTACYFATIHTDSSLLLADITDKFGQRAFVGKVCMDLNDTFPEYKETTEESIKETERFVSEMLQKNYSRVKPIVTPRFSLSCSETLMGELGNIAKTRDLHIQSHISENRDEVEAVKNLYPSYKNYTSVYDKNNLLTNKTVMAHGCYLSAEELNVFHERGASIAHCPNSNLSLSSGFLNVLEVLKHEVKIGLGTDVAGGYSYSMLDAIRRAVMVSNILLINKVNEKSLTLKEVFRLATLGGSQALGLDGEIGNFEVGKEFDAILINPKASDSPIDLFYGDFFGDISEAVIQKFLYLGDDRNIEEVYVGGKQVVPFSSSV
Q: Which “binding to solid support PDZ1 and PDZ2 domains” value does the source give for B1 here?
A: Its value is “able to bind with strong affinity”.

B2: MBP-cypin: cypin fused to an N-terminal maltose binding protein (protein)
chain: B1 chain
modifications: left off: large carriers
Q: How did the “binding to solid support PDZ1 and PDZ2 domains” value turn out when B2 was run?
A: The value was “able to bind with strong affinity”.
